Values of other authors, collected in article PMC3273586 (International Journal of Pharmaceutics, 2011).

Details: solution stored for 20 h at room temperature; ref Dijkhuizen-Radersma et al., 2002

Question: Which “aggregation of solution on storage” value does the source give for calcitonin here?
Answer: early onset of aggregation
